Data from PMC10380284, “Investigating the Prevalence of RNA-Binding Metabolic Enzymes in E. coli” (International Journal of Molecular Sciences, 2023).

Tests used:
[1] = target: T1, quinone oxidoreductase (QorA) (Escherichia coli, UniProt P28304); assay: NMR shift experiment; also competition with RNA in EMSA and MST; format: binding; details: 10-20 mM NADPH in the EMSA / MST competition with yffO mRNA fragment; pH 7.5
T1 construct: full-length ORF from ASKA library (pCA24N), N-terminal His-tag, expressed in E. coli BL21-Gold (DE3), IMAC and size exclusion
T1 sequence (P28304 1-327): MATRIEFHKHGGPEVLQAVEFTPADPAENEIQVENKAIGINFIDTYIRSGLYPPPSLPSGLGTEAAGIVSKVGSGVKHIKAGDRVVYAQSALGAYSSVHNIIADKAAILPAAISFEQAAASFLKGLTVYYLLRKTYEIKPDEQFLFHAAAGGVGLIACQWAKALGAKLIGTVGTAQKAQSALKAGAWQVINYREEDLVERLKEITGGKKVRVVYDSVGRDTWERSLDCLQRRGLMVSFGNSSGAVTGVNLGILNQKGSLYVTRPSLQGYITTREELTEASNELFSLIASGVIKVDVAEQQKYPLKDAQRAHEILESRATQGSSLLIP

MS2 phage coat protein = MS2 phage coat protein (bacteriophage MS2, UniProt P03612 2-130); assay: EMSA; 0.34-34 uM protein, 700 nM RNA; 50 mM Tris (HEPES for PykF), 80 mM NaCl, 10 mM KCl, 0.8 mM MgCl2, 0.5 mM DTT, pH 7.5, 30 min at 37 C (EMSA); MST same buffer + 0.05% Tween-20; details: protein: recombinant; chain copies: 2; label: 5' 32P; hairpin
MS2 phage coat protein, sequence (P03612 2-130): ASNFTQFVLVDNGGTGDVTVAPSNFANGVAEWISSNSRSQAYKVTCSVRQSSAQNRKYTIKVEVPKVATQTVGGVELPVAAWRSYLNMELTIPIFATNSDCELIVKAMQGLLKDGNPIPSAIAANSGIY

[2] = target: T2, Quinone oxidoreductase QorA (Escherichia coli K12, UniProt P28304 1-327); assay: MST; 0.05% Tween-20; 10 nM RNA; 50 mM Tris (HEPES for PykF), 80 mM NaCl, 10 mM KCl, 0.8 mM MgCl2, 0.5 mM DTT, pH 7.5, 30 min at 37 C (EMSA); MST same buffer + 0.05% Tween-20; details: protein: recombinant; tags: N-terminal His (pCA24N, ASKA); label: Cy5
T2 sequence: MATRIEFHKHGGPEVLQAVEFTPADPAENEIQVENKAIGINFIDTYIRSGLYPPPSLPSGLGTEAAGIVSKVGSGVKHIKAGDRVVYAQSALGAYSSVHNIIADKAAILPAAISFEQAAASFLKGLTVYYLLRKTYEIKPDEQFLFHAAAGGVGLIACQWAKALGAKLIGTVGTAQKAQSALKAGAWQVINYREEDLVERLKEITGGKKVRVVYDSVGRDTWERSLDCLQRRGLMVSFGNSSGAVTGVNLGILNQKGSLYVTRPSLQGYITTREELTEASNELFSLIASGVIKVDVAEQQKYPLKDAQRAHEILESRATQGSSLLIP

[3] = target: T2, Quinone oxidoreductase QorA; assay: EMSA; 350 nM RNA; 50 mM Tris (HEPES for PykF), 80 mM NaCl, 10 mM KCl, 0.8 mM MgCl2, 0.5 mM DTT, pH 7.5, 30 min at 37 C (EMSA); MST same buffer + 0.05% Tween-20; details: protein: recombinant; tags: N-terminal His (pCA24N, ASKA); label: 5' 32P
[4] = target: T3, Phosphoglycerate kinase Pgk (Escherichia coli K12, UniProt P0A799 1-387); assay: EMSA; 30 uM Pgk, 7 uM RNA; stronger than hairpins; 50 mM Tris (HEPES for PykF), 80 mM NaCl, 10 mM KCl, 0.8 mM MgCl2, 0.5 mM DTT, pH 7.5, 30 min at 37 C (EMSA); MST same buffer + 0.05% Tween-20; details: protein: recombinant; tags: N-terminal His (pCA24N, ASKA); label: 5' 32P; linear
T3 sequence: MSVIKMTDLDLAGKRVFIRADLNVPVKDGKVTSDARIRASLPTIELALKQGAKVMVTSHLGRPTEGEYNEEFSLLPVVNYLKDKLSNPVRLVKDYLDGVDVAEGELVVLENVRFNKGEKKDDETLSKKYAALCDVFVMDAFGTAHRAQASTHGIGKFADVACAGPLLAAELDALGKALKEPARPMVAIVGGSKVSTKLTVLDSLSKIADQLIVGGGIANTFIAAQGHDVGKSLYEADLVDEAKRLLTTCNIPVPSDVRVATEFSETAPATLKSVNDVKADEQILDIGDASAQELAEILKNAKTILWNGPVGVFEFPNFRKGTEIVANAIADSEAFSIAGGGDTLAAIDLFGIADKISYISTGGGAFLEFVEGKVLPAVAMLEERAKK

NC(=O)C1=CN([C@@H]2O[C@H](COP(=O)(O)OP(=O)(O)OC[C@H]3O[C@@H](n4cnc5c(N)ncnc54)[C@H](OP(=O)(O)O)[C@@H]3O)[C@@H](O)[C@H]2O)C=CC1 [NADPH]
NMR shift experiment; also competition with RNA in EMSA and MST [1]: NMR shift experiments that revealed larger peak shifts for the QorA-NADPH complex

GCACGCGUAUUCACUGAGCAUCAGCCAGACUGUGU (ssRNA) [rffG mRNA fragment]
binding result (MS2 phage coat protein): binds

GGAGCAUAUGGACUUCAGGGAAGGGAU (ssRNA) [Cy5-yffO mRNA fragment]
Kd [2]: ~7 µM

GGAGCAUAUGGACUUCAGGGAAGGGAU (ssRNA) [yffO mRNA fragment, 27 nt]
Kd [3]: ~7 µM

AGGACAAAAACAA (ssRNA) [A-rich linear control RNA]
binding result [4]: binds
